Source: PMC7618180 (2025)

B1: AtUBR4 ZZ domain (domain or fragment)
chain: SSVQYCCDGCSTVPILRRRWHCTVCPDFDLCEACYEVLDADRLPPPHTRDHPMTAIPI
B2: isolated ZZ-DZB domain of KCMF1 (domain or fragment)
chain: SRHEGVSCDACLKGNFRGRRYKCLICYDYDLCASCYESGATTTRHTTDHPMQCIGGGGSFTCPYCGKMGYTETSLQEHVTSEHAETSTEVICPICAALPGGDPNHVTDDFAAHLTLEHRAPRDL

Tests used:
Experiment in all cases: ITC
^NRA peptide = target: ^NRA peptide
^NRR peptide = target: ^NRR peptide
[1] = target: B2
^NLT peptide = target: ^NLT peptide
Chain of ^NLT peptide (Q9P0J7 other isoform, or with tags, fused parts or gaps): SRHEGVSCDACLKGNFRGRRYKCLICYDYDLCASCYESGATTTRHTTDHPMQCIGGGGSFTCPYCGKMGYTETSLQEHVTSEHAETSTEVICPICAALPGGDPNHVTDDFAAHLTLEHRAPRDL

Binder: B1
- Kd (^NRA peptide): 10 µM
- Kd (^NRR peptide): 19 µM

Binder: RTGG [^NRT peptide (ITC)]
- Kd [1]: 7 µM

Binder: B2
- Kd (^NLT peptide): 16 µM
